Results: paper PMC5638340
pIC50, pKd: −log10 of the molar value.

Experiments:
[1] = target: Acetylcholine binding protein (AChBP) from Lymnaea stagnalis (L. stagnalis) (UniProt P58154); experiment: SPR
[2] = target: Acetylcholine binding protein (AChBP) from Lymnaea stagnalis (L. stagnalis) (UniProt P58154); experiment: radioligand binding
[3] = target: Human α7 nAChR expressed in GH4C1 cells (human) (UniProt P36544); experiment: radioligand binding
[4] = target: Muscle-type nAChR of Torpedo californica electric organ (Torpedo californica); experiment: radioligand binding
Muscle-type nAChR of Torpedo californica electric organ (Torpedo californica), sequence (P02710 25-461, chain 1 of 4): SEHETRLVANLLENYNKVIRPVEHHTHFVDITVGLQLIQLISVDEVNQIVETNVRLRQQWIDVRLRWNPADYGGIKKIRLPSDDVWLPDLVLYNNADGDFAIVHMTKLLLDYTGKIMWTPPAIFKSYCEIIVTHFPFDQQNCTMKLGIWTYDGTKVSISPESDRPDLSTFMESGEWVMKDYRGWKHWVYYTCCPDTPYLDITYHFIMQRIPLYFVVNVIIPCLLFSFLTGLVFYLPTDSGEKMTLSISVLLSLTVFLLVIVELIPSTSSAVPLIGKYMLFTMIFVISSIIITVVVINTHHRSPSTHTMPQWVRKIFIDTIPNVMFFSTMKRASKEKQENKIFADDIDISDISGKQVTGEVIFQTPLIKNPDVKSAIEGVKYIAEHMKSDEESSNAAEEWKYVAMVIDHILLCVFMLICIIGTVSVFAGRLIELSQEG
Muscle-type nAChR of Torpedo californica electric organ (Torpedo californica), sequence (P02712 25-493, chain 2 of 4, further chain): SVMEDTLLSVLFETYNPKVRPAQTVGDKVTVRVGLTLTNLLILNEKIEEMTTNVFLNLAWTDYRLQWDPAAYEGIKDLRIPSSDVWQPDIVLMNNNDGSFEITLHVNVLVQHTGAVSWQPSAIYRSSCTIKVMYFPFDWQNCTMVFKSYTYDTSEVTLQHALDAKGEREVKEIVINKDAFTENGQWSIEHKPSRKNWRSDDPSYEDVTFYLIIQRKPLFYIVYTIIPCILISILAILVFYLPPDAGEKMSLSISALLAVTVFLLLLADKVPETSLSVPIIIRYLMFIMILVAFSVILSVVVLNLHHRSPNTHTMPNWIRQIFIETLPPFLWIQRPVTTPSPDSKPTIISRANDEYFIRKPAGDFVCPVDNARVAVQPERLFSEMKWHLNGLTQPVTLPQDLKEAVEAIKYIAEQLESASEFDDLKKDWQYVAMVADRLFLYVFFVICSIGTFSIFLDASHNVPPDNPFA
Muscle-type nAChR of Torpedo californica electric organ (Torpedo californica), sequence (P02714 18-506, chain 3 of 4, further chain): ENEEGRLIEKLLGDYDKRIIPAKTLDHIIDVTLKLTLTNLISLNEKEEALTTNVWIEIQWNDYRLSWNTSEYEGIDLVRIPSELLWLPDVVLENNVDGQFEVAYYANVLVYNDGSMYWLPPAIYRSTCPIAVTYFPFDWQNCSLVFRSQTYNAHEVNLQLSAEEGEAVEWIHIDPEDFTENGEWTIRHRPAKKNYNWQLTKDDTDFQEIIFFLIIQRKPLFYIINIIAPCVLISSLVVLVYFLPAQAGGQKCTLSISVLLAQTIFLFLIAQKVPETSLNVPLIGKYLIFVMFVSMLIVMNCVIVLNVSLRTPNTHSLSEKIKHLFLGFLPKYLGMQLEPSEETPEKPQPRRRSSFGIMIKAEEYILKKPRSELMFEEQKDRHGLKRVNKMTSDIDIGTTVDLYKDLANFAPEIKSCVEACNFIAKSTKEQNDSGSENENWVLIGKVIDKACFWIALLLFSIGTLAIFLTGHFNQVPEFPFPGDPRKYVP
Muscle-type nAChR of Torpedo californica electric organ (Torpedo californica), sequence (P02718 22-522, chain 4 of 4, further chain): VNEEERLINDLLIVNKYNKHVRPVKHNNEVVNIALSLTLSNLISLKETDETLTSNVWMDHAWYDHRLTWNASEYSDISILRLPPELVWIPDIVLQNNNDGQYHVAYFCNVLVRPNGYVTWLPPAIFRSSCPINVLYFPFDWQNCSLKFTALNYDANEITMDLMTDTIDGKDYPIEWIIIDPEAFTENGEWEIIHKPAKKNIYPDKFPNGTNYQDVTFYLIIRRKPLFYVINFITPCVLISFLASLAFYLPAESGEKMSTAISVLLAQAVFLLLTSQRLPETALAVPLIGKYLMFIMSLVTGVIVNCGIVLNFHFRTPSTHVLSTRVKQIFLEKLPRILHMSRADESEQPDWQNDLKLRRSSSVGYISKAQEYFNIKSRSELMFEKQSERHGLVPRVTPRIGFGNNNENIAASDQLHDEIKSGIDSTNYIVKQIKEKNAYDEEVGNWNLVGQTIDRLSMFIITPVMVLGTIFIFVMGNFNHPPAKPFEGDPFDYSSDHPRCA

Human α7 nAChR expressed in GH4C1 cells (human), sequence (P36544 23-502): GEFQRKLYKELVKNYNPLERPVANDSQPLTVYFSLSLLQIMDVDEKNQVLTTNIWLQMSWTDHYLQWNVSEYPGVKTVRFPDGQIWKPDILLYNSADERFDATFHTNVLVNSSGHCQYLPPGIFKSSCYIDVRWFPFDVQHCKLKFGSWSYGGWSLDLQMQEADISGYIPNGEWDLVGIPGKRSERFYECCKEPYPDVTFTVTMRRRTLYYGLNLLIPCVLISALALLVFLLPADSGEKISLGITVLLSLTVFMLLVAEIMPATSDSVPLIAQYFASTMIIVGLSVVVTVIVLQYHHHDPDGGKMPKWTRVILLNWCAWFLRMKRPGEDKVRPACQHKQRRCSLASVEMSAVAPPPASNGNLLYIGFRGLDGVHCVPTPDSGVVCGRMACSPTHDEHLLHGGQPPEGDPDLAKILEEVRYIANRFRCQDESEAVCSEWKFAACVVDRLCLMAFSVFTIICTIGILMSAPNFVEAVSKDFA
Acetylcholine binding protein (AChBP) from Lymnaea stagnalis (L. stagnalis), sequence (P58154 20-229): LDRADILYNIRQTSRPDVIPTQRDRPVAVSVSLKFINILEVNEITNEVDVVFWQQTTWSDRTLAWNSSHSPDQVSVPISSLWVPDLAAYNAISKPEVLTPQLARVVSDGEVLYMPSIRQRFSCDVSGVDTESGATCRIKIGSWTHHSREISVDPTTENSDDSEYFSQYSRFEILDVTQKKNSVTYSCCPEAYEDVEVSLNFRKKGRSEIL

“Crotoxin from Crotalus durissus terrificus venom (complex)” was tested. Which pKd [1] did it give?
Its pKd is 6.92.

What about the pIC50 [2] of the same substance?
Its pIC50 is 6.19.

And the IC50, high affinity site (two-site model) [3]?
Its IC50, high affinity site (two-site model) is 4.9 nM.

What about the IC50, low affinity site (two-site model) [3] of the same substance?
The IC50, low affinity site (two-site model) was 15000 nM.

And the IC50, high affinity site (two-site model) [4]?
Its IC50, high affinity site (two-site model) is 30 nM.

What about the IC50, low affinity site (two-site model) [4] of the same substance?
Its IC50, low affinity site (two-site model) is 260 nM.
